Results published in publication PMC12445344, “Influence of Calcium Ions on the Membrane Binding of S100B Protein” (Langmuir, 2025).

Biological target: the molecule itself
Test: native gel or EMSA; Coomassie-stained 16% native gel; dimeric S100B sample

B1: S100B protein (natural protein, human)
chain: SELEKAMVALIDVFHQYSGREGDKHKLKKSELKELINNELSHFLEEIKEQEVVDKVMETLDNDGDGECDFQEFMAFVAMVTTACHEFFEHE
notes: S100B, Homo sapiens, UniProt P04271; Gene carried in the pETDuet-1 vector; The protein is a homodimer as purified; the monomer was obtained by extensive dialysis against deionized water; also called dimeric S100B; monomeric S100B; source: E. coli BL21-CodonPlus (DE3)-RIL, purified (ammonium sulfate, HiTrap Q XL anion exchange)
B1: binds.
